The numbers were not newly measured in PMC5830908, which cites them from elsewhere.

Like-named read-outs stand apart in the source and are kept apart here.

For series [1], the target named is K-Ras (Homo sapiens) (UniProt P01116).
Series [2] has the same target. This is another data set of the same source.

As usually defined, the Kd is the equilibrium constant for the complex coming apart. On to KRpep-2, for which the Kd with K-Ras (Homo sapiens) [1] is 0.7 µM; in the series with K-Ras (Homo sapiens) [2], 0.051 µM.
